B1: blenniorphin 1–17 (peptide)
peptide: YGGFMRRVGRPEWLVDS
notes: numbers count on: the dyn A 1–17-like peptide, not the precursor; Free N-terminus and free C-terminal carboxyl as printed (NH2-...-COOH); also called blenniorphin-17; source: synthetic peptide (Fmoc-based SPPS, RP-HPLC purified)
B2: blenniorphin 1–8 (peptide)
peptide: YGGFMRRV
notes: numbers count on: the dyn A 1–17-like peptide, not the precursor; Free N-terminus and free C-terminal carboxyl as printed (NH2-...-COOH); source: synthetic peptide (Boc-based SPPS, RP-HPLC purified)
B3: blenniorphin 1–13 (peptide)
peptide: YGGFMRRVGRPEW
notes: numbers count on: the dyn A 1–17-like peptide, not the precursor; Free N-terminus and free C-terminal carboxyl as printed (NH2-...-COOH); also called blenniorphin-13; source: synthetic peptide (Boc-based SPPS, RP-HPLC purified)

Each molecule was assayed against mouse KOR-EGFP (mouse, UniProt P33534 1-380) (assay: cell-based or functional assay). Conditions: not given.
Chain of mouse KOR-EGFP (P33534 whole entry): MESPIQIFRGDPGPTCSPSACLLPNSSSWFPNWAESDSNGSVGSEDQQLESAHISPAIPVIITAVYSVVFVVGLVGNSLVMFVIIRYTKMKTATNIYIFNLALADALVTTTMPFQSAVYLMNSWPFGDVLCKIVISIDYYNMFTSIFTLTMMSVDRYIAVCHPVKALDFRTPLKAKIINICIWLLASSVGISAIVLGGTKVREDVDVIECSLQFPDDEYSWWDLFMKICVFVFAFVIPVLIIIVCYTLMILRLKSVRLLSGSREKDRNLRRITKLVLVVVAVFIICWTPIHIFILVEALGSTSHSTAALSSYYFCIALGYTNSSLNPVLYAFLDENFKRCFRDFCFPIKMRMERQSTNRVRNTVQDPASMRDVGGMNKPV

Molecule	extent of β-arrestin-2-Nluc recruitment to KOR-EGFP (BRET) at 10 µM peptide, relative to 10 µM dyn A 1–13 (100%) [% lower than dyn A 1–13]
B1	~30
B2	~30
B3	~30

What follows are molecules tested against T1, mouse κ-opioid receptor (mouse, UniProt P33534 1-380) (assay: radioligand binding; displacement of [3H]-diprenorphine (1 nM) from HEK293 cell membranes stably expressing mouse KOR (6.3–7.6 µg/assay) by peptides (0.1 nM–30 µM); 50 mM Tris-HCl pH 7.4, 10 mM MgCl2, 0.1% BSA; 1.5 h at 37°C; filtration; Ki from IC50 by Cheng and Prusoff). Conditions: one partner purified.
T1 construct: also called KOR; mouse KOR
T1 sequence (P33534 whole entry): as above

Molecule	Ki [nM]
B1	85.8
B2	3.3
B3	116

These molecules were tested against T1, mouse κ-opioid receptor (assay: cell-based or functional assay). Conditions: not given.

Molecule	EC50 of inhibition of forskolin-stimulated cAMP accumulation (HTRF cAMP-Gi kit), HEK293 cells stably expressing mouse KOR [nM]	Emax of cAMP inhibition, normalised to 10 µM dyn A 1–13 (100%), HEK293 cells stably expressing mouse KOR [%]
B1	15.2	97.5
B2	3.6	82.4
B3	5	98.5

What follows are molecules tested against mouse KOR (Mus musculus, UniProt P33534) (assay: cell-based). Conditions: HEK293, read-out: Efficacy cAMP Emax ± SD.
Chain of mouse KOR (P33534 whole entry): as above

Molecule	Emax at 10 µM [%]
CSCC[C@H](NC(=O)[C@H](Cc1ccccc1)NC(=O)CNC(=O)CNC(=O)[C@@H](N)Cc1ccc(O)cc1)C(=O)N[C@@H](CCCNC(=N)N)C(=O)N[C@@H](CCCNC(=N)N)C(=O)N[C@H](C(=O)O)C(C)C [blenniorphin 1–8]	82.4 ± 9.8
H-YGGFMRRVGRPEW-OH [blenniorphin 1–13]	98.5 ± 9.1
H-YGGFMRRVGRPEWLVDS-OH [blenniorphin 1–17]	97.5 ± 11

Source: article PMC8569185 (Frontiers in Pharmacology, 2021)
